Data from the nanobody polyreactivity screen of Harvey et al. (2022).

Experiment: yeast display, Sf9 membrane polyspecificity reagent, FACS + sequencing; frameworks hold sequencing errors
Method in brief: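 Nanobodies from a synthetic yeast display library (Saccharomyces cerevisiae BJ5465), induced 36–48 hours with galactose, were stained 1 hour at 4 °C with 10% biotinylated, detergent-solubilized Sf9 membrane reagent, enriched on streptavidin microbeads, then FACS-sorted. Anti-HA (expression) and streptavidin (reagent binding) fluorescence set low and high (top ~1%) gates. Polyreactivity labels come from the gate of origin. Genes were colony-PCR amplified, MiSeq 2 × 250 sequenced and filtered by CDR length.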

Sequence | polyreactivity (PSR sort gate)
QVQLVESGGGLVQAGGSLRLSCAASGSTFASNAMGWYRQAPGKERELVAAITSRDASTYYADSVKGRFTISRDNAKNTVYLQMNSLKPEDTAVYYCATDGYSPAAFDYWGQGTQVTVSS | low polyreactivity
QVQLVESGGGLVQAGGSLRLSCAASGSTFASYAMGWYIQAPGKERELVAAITDSGGSTYYADSVKGRFTISRDNAKNTVYLQMNSLKPEDTAVYYCAAYGPYFSYHDYDYWGQGTQVTVSS | low polyreactivity
QVQLVESGGGLVQAGGSLRLSCAASGSTFASYAMGWYRQAPGKERELVAAIRWRGGTTYYADSVKGRFTISRDNAKNTVNLQMNSLKPEDTAVYYCNADRYYLYYFWGQGTQVTVSS | low polyreactivity
QVQLVESGGGLVQAGGSLRLSCAASGSTFATDAMGWYRQAPGTERELVAVISRSGGSTYYADSVKGRFTISRDNAKNTVYLQMNSLKPEDTAVYYCAARLVNKSRWGTLRYDYWGQGTQVTVSS | high polyreactivity
QVQLVESGGGLVQAGGSLRLSCAASGSTFATNAMGWYRQAPGKERELVAAIRRGGGTYYADSVKGRFTISRDNAKNTVYLQMNSLKPEDTAVYYCAALYGGRRPYEYWGQGTQVTVSS | high polyreactivity
QVQLVESGGGLVQAGGSLRLSCAASGSTFATNTLGWYRQAPGKERELVAAISRGTSTKYADSVKGRFTISRDNAKNTVYLQMTCLKPEDTAVSYCNAVSRDKSLYDYWGQGTQVTVSS | high polyreactivity
QVQLVESGGGLVQAGGSLRLSCAASGSTFATYAMGWYRQAPGKERELVAAISKSGGSTYYADSVKGRFTISRDNAKNTVYLQMNSLKPEDTAVYYCAAVGPYRWYDYWGQGTQVTVSS | high polyreactivity
QVQLVESGGGLVQAGGSLRLSCAASGSTFATYAMGWYRQAPGKERELVAAITLRGGRTYYADSVKGRFTISRDNAKNTVYLQMNSLKPEDTAVYYCAAEYYYLSFGLTWWRGFDYWGQGTQVTVSS | high polyreactivity
QVQLVESGGGLVQAGGSLRLSCAASGSTFATYAMGWYRQAPGKERELVAVITRGGRTYYADSVKGRFTISRDNAKNTVYLQMNSLKPEDTAVYYCAAKAYTYYARIGFDYCGQGTQVTVSS | high polyreactivity
QVQLVESGGGLVQAGGSLRLSCAASGSTFAVNAMGWYRQAPGKEREFVASIRGSGGRTSYADSVKGRFTISRDNAKNTVYLQMNCLKPEDTAVYYCAARYVGGTWRSGRYPRSDYWGQGTQVTVSS | high polyreactivity
QVQLVESGGGLVQAGGSLRLSCAASGSTFAVYAMGWYRQAPGKERELVATITGSGGSTYYADSVKGRFTISRDNAKNTVYLEMNSLKPEDTAVYYCAAEVVAWSLYEDFKTYDYWGQGTQVTVSS | low polyreactivity
QVQLVESGGGLVQAGGSLRLSCAASGSTFAVYAMGWYRQPPGKERELVAAITWSGGSTYYADSVKGRFTISRDNAKNTVYLQMNSLKPEDTAVYYCAAVVVRFIYVYFEFEWGQGTQVTVSS | low polyreactivity
QVQLVESGGGLVQAGGSLRLSCAASGSTFAWNAMGWYIQAPGKERELVAAISYSGGTTYYADSVKGRFTISRDNAKNTVYLQMNSLKPEDTAVYYCAKWEGHGRNPWGAGTEGDYWGQGTQVTVSS | low polyreactivity
QVQLVESGGGLVQAGGSLRLSCAASGSTFAWYAMGWYRQAPGKERELVAAISSTVGSTYYADSVKGRFTISRDNAKNTVYLQLKSLKPEDTAVYYCARYYYRYYIRQLALGASTYDYWGQGTQVTVSS | high polyreactivity
QVQLVESGGGLVQAGGSLRLSCAASGSTFAYYAMGLYRQAPGKERELVASISWRGGSTYYADSVKGRFTISRDNAKNTVYLQMNSLKPEVTAVYYCAAGRFYKWSRSQEYDYWGQGTQVTVSS | low polyreactivity
QVQLVESGGGLVQAGGSLRLSCAASGSTFAYYAMGWSRQAPGKERELVASISWRGGSTYYADSVKGRFTNSRDNAKNTVYLQMNSLKPEDTAVYYCAAGRFYIWSRSQEYDYWGQGTQVTVSS | low polyreactivity
QVQLVESGGGLVQAGGSLRLSCAASGSTFAYYAMGWYRQAPGKERELVAAISVSGGRTYYADSVKGRFTISRDNAKNTVYLQMNSLKPEDTAVYYCAARLWRDYYWGQGTQVTVSS | high polyreactivity
